Key:
[1] = biological target: Human FcRn with human β2M on MDCK II clone 15 cells (human) (UniProt P55899)
[2] = biological target: Human FcRn with human β2M on MDCK II clone 15 cells (human) (UniProt P55899); experiment: cell-based or functional assay

Sequence of IgG4 Fc IgM tp L309 (P01861 other isoform, or with tags, fused parts or gaps limits assumed): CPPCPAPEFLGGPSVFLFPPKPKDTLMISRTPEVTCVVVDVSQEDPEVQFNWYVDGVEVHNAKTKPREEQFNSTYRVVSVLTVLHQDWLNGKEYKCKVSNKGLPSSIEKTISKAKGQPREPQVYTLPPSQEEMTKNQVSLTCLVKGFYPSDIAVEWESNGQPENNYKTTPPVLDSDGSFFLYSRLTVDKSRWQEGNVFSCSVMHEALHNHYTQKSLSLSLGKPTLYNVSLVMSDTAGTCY

EC50, inhibition of FcRn mediated IgG recycling (cell lysates), percentage inhibition relative to the positive control; blocked ligand biotinylated human IgG [upper panel (cell lysates] [1] [µg/mL] | Blockade of IgG intracellular uptake EC50 [2] [µg/mL] | Blockade of IgG recycling EC50 [2] [µg/mL] | Blockade of IgG recycling (% inhibition at 100 µg/ml) [2] | Substance
0.37 | 4.4 | 0.33 | – | IgG1 Fc IgM tp L309 (from UniProt P0DOX5 228-449) (Fc fusion)
– | 0.54 | 0.35 | – | IgG1 IgM tail-piece, T307A (Fc fusion)
– | 0.34 | 0.55 | – | IgG1 IgM tail-piece, V308P (Fc fusion)
– | 0.42 | 0.56 | – | IgG4 IgM tail-piece, V308F (Fc fusion)

The next lines start with the substance.

Substance | EC50, inhibition of FcRn mediated IgG recycling (cell lysates), percentage inhibition relative to the positive control; blocked ligand biotinylated human IgG [upper panel (cell lysates] [1] [µg/mL] | Blockade of IgG intracellular uptake EC50 [2] [µg/mL] | Blockade of IgG recycling EC50 [2] [µg/mL] | Blockade of IgG recycling (% inhibition at 100 µg/ml) [2]
IgG1 IgM tail-piece, H310L (Fc fusion) | – | – | – | 45
IgG1 IgM tail-piece, V308F (Fc fusion) | – | 0.12 | 0.073 | –
IgG4 Fc IgM tp L309 (from UniProt P01861 106-325) (Fc fusion) | – | 5.9 | 1 | –
IgG4 IgM tail-piece, T307A (Fc fusion) | – | 0.5 | – | –
IgG4 IgM tail-piece, V308P (Fc fusion) | – | 0.51 | 0.42 | –

From US20170088603A1
